According to patent US20210113690A1 (BERLIN CHEMIE, published 2021):

Biological target: Contiguous 8mer peptides of LY75 protein spanning residues 216 to 1666 of the full length LY75 protein (peptide microarray)
Assay: peptide microarray, 1 ug/mL LY75_A1, scanned at 635 nm; cut off for non-specific binding 3000

B1: LY75_A1 monoclonal antibody (antibody, human IgG1, kappa, V domains shown)
VH: EVQLVESGGGLVKPGGSLRLSCAASGFTYSNAWMSWVRQAPGKGLEWVGRIKSKTDGGTTDYAAPVQGRFTISRDDSKNTLYLQMNSLKTEDTAVYYCTIFGVVSFDYWGQGTLVTVSS
VL: DVQMTQSPSSLSASVGDRVTITCRASQSISDYLSWYQQRPGKAPNLLIYAASNLKTGVPSRFSGSGSGTDFTLTISTLQPEDFATYYCQQSYRSPWTFGQGTKVEIKR
notes: also called LY75A1 antibody; antibody LY75_A1
In the case of B1, the average signal intensity of all spots (signal intensity (scale 1-65535)) is reported as 885 and the maximum signal intensity (signal intensity (scale 1-65535)) is reported as 25000.
